Laboratory results reported in patent US20030223991A1.

Tests used:
[1] = biological target: human CD200Ra (SEQ ID NO:2) (human) (UniProt Q8TD46); assay: cell-based or functional assay
[2] = biological target: mouse CD200Ra (SEQ ID NO:6) (mouse) (UniProt Q9ES57); assay: cell-based or functional assay
Chain of UniProt Q9ES57 (Q9ES57 26-326 limits assumed): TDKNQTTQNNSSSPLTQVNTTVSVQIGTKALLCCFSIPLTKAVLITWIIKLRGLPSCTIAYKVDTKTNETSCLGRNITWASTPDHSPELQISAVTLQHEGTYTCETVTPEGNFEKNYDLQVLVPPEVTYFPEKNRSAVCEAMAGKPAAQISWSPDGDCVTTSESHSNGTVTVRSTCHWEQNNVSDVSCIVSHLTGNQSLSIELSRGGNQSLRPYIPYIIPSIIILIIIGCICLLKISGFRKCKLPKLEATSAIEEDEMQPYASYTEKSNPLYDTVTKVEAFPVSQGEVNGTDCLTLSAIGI

Chain of UniProt Q8TD46 (Q8TD46 other isoform, or with tags, fused parts or gaps limits assumed): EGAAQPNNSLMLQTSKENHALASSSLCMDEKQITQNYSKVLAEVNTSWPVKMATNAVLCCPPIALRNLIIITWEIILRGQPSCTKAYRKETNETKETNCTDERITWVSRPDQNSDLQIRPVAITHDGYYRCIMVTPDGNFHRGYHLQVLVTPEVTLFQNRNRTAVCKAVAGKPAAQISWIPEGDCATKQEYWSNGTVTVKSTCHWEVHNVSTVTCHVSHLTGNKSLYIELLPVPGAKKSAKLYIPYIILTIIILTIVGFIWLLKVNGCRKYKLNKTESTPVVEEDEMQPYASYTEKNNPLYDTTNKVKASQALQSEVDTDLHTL

Bioassay IC50 (inhibition of mast cell secretion) [2] [nM] | Substance | Bioassay IC50 (inhibition of β-hexosaminidase secretion by mouse mast cells expressing human CD200Ra) [1] [nM]
– | huCD200-Ig (from UniProt P41217 31-232) (Fc fusion) | 0.3
1.3 | muCD200-Ig (from UniProt O54901 31-232) (Fc fusion) | –
